Numbering of substitutions follows the chain as printed. Blank lines part the entries; values can stand above or below the binder they belong to.
Target: human ILT3 (binding and competition assays, construct not stated) (human, UniProt Q8NHJ6 22-259)
Experiment: binding to hILT3 (relative binding)

B1: h5E5-42 (antibody, V domains shown)
VH: QVQLVQSGAEVKKPGASVKVSCKASGYSFSGFYIDWVKQPPGKGLEWIGYIFPSNGETSYNQKFKGRVTMTVDKSTSTVYMELSSLRSEDTAVYYCARQAFYYFDYWGQGTTVTVSS
VL: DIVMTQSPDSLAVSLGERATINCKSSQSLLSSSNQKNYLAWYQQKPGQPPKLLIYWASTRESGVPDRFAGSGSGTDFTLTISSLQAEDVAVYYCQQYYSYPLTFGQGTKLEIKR
EC50: 0.05 µg/mL

B2: h5E5-22 (antibody, V domains shown)
VH: B1 VH with Q1E, S30T, V68A
VL: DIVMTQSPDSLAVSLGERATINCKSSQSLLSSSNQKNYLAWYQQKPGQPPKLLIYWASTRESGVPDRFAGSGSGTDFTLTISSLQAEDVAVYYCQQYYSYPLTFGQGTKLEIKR
EC50: 0.08 µg/mL

The remaining lines, values ahead:

EC50: 0.09 µg/mL
B3: h5E5-73 (antibody, V domains shown)
VH: B1 VH with S30T, Y106S
VL: DIVMTQSPDSLAVSLGERATINCKSSQSLLSSSNQKNYLAWYQQKPGQAPRLLIYWASTRESGVPDRFAGSGSGTDFTLTISSLQAEDVAVYYCQQYYSYPLTFGQGTKLEIKR

EC50: 0.08 µg/mL
B4: h5E5-84 (antibody, V domains shown)
VH: B1 VH with Q1E, V68A
VL: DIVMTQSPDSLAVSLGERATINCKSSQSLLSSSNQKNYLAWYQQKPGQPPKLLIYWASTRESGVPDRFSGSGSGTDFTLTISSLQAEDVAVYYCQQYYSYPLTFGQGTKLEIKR

EC50: 0.1 µg/mL
B5: h5E5-83 (antibody, V domains shown)
VH: B1 VH with Q1E, V68A
VL: B3 VL

From US20250277032A1 (published 2025)
